Assay results published in patent US7033773B1, “Screening assays for G protein coupled receptor agonists and antagonists” (The General Hospital Corporation, priority 1997, dated 2006).
Where no end group is shown, it is not given here.

Columns and labels:
[1] = target: T1, human PTH/PTHrP receptor (Homo sapiens, UniProt Q03431); experiment: IP3 production (PLC activation) in LLC-PK1 cells expressing human PTHR; assay type: cell-based; set-up: transfected with a full-length human PTH/PTHrP receptor cDNA; expressed in transfected cells; conditions: for activation of PLC (in words): 1000 nM, HKRK B28 at 4 min and HKRK B7 at 30 min; for formation of IP3 (activation of phospholipase-C): peptide 1000 nM, mean±SEM
T1 sequence (Q03431 27-593): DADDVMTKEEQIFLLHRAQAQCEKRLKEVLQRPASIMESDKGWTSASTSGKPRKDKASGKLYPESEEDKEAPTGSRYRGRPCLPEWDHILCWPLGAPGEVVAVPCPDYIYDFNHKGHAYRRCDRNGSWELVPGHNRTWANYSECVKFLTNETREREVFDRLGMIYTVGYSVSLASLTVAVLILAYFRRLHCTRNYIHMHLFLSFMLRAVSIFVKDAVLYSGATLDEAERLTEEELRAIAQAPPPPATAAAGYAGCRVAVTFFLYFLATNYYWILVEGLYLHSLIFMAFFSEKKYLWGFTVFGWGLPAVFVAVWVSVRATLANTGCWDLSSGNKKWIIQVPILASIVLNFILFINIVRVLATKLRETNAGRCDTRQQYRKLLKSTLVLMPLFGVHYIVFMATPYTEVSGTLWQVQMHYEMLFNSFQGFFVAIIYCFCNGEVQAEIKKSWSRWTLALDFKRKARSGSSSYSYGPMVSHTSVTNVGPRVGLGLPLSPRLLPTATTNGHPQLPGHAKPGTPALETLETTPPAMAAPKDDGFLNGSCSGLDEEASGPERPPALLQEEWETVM
Procedure: Cells were seeded into 24-well plates at a density of 2.5×10^5 cells/well and cultured for a further 2 days before study. The cells were labeled at 37° C. for 16 h before assay with 3 uCi/ml of [^3H]myo-inositol in assay medium (serum- and inositol-free DMEM (GIBCO-BRL, Grand Island, N.Y.) supplemented with 0.1% BSA). After washing the cells with prewarmed assay medium containing 30 mM LiCl, they were incubated with 0.25 ml of assay medium containing 30 mM LiCl and stimulators (or vehicle) at 37° C. for various intervals(1-30 min). IP3 formation was arrested by aspiration and immediate addition of 0.5 ml of ice-cold 5% TCA. The acid extracts then were extracted twice with two volumes of water-saturated ether and adjusted to pH 7.4 with concentrated NaOH and Tris base (final concentration=10 mM) prior to chromatography on AG 1×8 anion-exchange columns (Bio-Rad, Richmond, Calif.), as previously described (Guo, J., et al., Endocrinology 136:3884-3891 (1995)). After eluting other fractions (free [^3H]myo-inositol, glycerophosphate inositol, IP1, and IP2), IP3 fractions were collected and their content of radioactivity was determined by liquid scintillation spectrometry (Beckman, model LS 6000IC).
HKRK B7 cells and HKRK B28 cells, previously loaded with [^3H]myo-inositol, were incubated with each peptide (1000 nM) for 30 min or 4 min, respectively. The formation of IP3 is expressed as a percentage of the amount measured in vehicle-treated controls. Values shown are means±SEM of triplicate determinations.

[2] = target: T1, human PTH/PTHrP receptor; experiment: Urokinase-type plasminogen activator (u-PA) secretion bioassay in LLC-PK1 cells expressing human PTHR; conditions: for secreted u-PA: peptide 1000 nM, 16 hr, mean±SEM
Procedure: Cells were seeded into 96-well plates at a density of 6×10^4 cells/well and used the following day. The cells were washed once with 0.2 ml and then refed with 0.1 ml of prewarmed DMEM containing 0.05% BSA. After adding each stimulator, plates were returned to the incubator at 37° C. for 16 h. Conditioned medium (5 ul) then was transferred from each well to a clean microplate. […] Activity was expressed in Ploug units/well, using purified human urokinase (Calbiochem) as a standard.
Cells were incubated with the indicated peptides (1000 nM) for 16 hr before measurement of secreted u-PA present in the medium, which was expressed as a percentage of the activity measured in vehicle-treated controls. Values shown are means±SEM of triplicate determinations.

[3] = target: T1, human PTH/PTHrP receptor; experiment: Cytosolic free calcium (fura-2) in LLC-PK1 cells expressing human PTHR; conditions: 100 nM peptide; HKRK B7 cells
Procedure: Cytosolic free calcium was measured in fura 2AM-loaded confluent monolayers of cells.
Cytosolic free calcium was measured by dual fluorescence in cells loaded with the Ca^2+-sensitive intracellular probe fura-2. Cells were seeded onto glass coverslips at a density of 40,000-600,000/cm^2 and incubated for 2 days as described above. Coverslips were washed twice with PBS before loading in phosphate-free Buffer B containing 4 uM of fura-2/AM (Molecular Probes, Eugene, Oreg.) for 30 min at room temperature (22° C.). After washing twice with fura-free Buffer B, the coverslips were mounted in a cuvette containing 2 ml of phosphate-free Buffer B at 37° C. and the emission at 510 nm in response to alternating excitation at 340 and 380 nm was monitored using a ratiometric PTI Deltascan fluorescence spectrometer with excitation and emission bandwidths of 2 nm. After achieving a stable baseline, agonists were introduced by exchange into 2 ml of fresh buffer to which 10-20 ul of concentrated agonist stock (or vehicle alone) had been added. Peptide stocks were prepared in 0.1% trifluoroacetic acid, ionomycin and phorbol esters were dissolved in dimethyl sulfoxide and all other additives were prepared in water. Maximum and minimum fluorescence signals were obtained by exposure to modified buffers containing 1 uM ionomycin plus 20 mM calcium or 2 mM EGTA in the nominal absence of calcium, respectively, and autofluorescence was estimated from signals obtained in the presence of ionomycin plus 2.5 mM MnCl2.

[4] = target: T1, human PTH/PTHrP receptor; experiment: Cellular cAMP accumulation in LLC-PK1 cells expressing human PTHR; assay type: cell-based; set-up: transfected with a full-length human PTH/PTHrP receptor cDNA; expressed in transfected cells; conditions: HKRK B28 cells; for activation of AC (in words): similar in HKRK B7
Procedure: Cells were seeded into 24-well plates at a density of 2.5×10^5 cells/well and cultured for a further 2 days before study. The cells were rinsed once with 0.5 ml of ice-cold Buffer B [10 mM HEPES (pH 7.4), 130 mM NaCl, 5 mM KCl, 1.2 mM CaCl2, 1 mM MgCl2, 1.2 mM Na2HPO^4 5 mM glucose, and 0.1% heat-inactivated BSA] supplemented with 1 mM isobtylmethylxanthine (IBMX), and placed on ice. Treatments were added to each well in 0.25 ml of IBMX-supplemented Buffer B, after which the plates were incubated at 37° C. for 15 min. The buffer then was rapidly aspirated, the plates were rapidly transferred onto liquid nitrogen, and the frozen monolayers were subsequently thawed directly into 0.5 ml of 50 mM HCl. The extracted cAMP then was measured using a commercial RIA kit (Dupont-New England Nuclear, Boston, Mass.). Results were expressed as fold-basal, where basal levels ranged between 38 and 128 pmol/mg protein/15 min. The basal level of cAMP accumulation in native LLC-PK1 cells was not consistently altered in subclones that expressed wild type PTH/PTHrp receptors.
Maximal PTH-dependent cAMP accumulation was assessed in the human PTHR-transfected LLC-PK1 subclones following incubation for 15 min with a high concentration (1000 nM) of hPTH(1-34) (Table 1). As reported previously for LLC-PK1 cells that stably expressed rat PTHRs (Guo, J., et al., Endocrinology 136:3884-3891 (1995)), the maximal adenylyl cyclase response was relatively independent of the surface density of human PTHRs above a relatively low threshold (relative to that required for PLC activation—see below). In the case of the human PTHR, however, this threshold for saturation of maximal AC activation appeared to lie between 120,000 and 280,000 (Table 1), which is at least 6 to 10-fold higher than that previously observed for the rat PTHR (Guo, J., et al., Endocrinology 136:3884-3891 (1995)).

[5] = target: T1, human PTH/PTHrP receptor; experiment: Cellular phosphate uptake in LLC-PK1 cells expressing human PTHR; assay type: cell-based; set-up: transfected with a full-length human PTH/PTHrP receptor cDNA; expressed in transfected cells; conditions: HKRK B28 and HKRK B7 cells; peptides 1000 nM, 6 hr
Procedure: FIG. 8. Regulation of phosphate uptake by PTH in HKRK B7 and HKRK B28 cells. […] Results are expressed as percentage of basal, and each bar represents the mean±SEM of a representative experiment performed in triplicate. Similar results were obtained from at least 5 individual experiments. Cells were seeded into 24-well plates at a density of 2.5×10^5 cells/well and cultured for a further 2 days before study. Twenty four hours before assay, cells were refed with 0.5 ml of DMEM containing 0.1% BSA. The next day, cells were refed with serum-free medium (DMEM+0.1% BSA) containing drugs or peptides, and the incubations were continued at 37° C. under 5% CO2 in air for another 6 hr. Cells then were washed with prewarmed Buffer B without BSA and Na2HPO4 and then were incubated at 37° C. for 5 min in 0.25 ml of the same buffer containing [^32P]orthophosphate (4 uCi/ml) and 0.1 mM Na2HPO4. Phosphate uptake was arrested by adding 1 ml of ice-cold sodium-free “stop buffer” [10 mM HEPES (pH 7.4), 140 mM choline chloride, and 5 mM sodium arsenate], followed by two further washes with same buffer. The drained cell layer then was solubilized in 0.5 ml of Lysis Buffer, and cell-associated radioactivity was determined by Cerenkov counting, as previously described (Guo, J., et al., Endocrinology 136:3884-3891 (1995)).

[6] = HKRK B7 cells, 30 min stimulation
[7] = HKRK B28 cells, 4 min stimulation

formation of IP3 (activation of phospholipase-C) [1, 6]	formation of IP3 (activation of phospholipase-C) [1, 7]	u-PA bioassay activity, % of maximal response to hPTH(1-34) ([2]; HKRK B7 and HKRK B28 cells)	concentrations at which AC was stimulated significantly [4] [nM]	cAMP response as % of the maximal response to hPTH(1-34) ([4]; 1000 nM peptide) [%]	maximal activation of phosphate uptake (in words) [5]	u-PA bioassay activity (in words) ([2]; HKRK B7 and HKRK B28 cells)	Substance	activation of PLC (in words) [1]	secreted u-PA ([2]; HKRK B7 cells)	secreted u-PA ([2]; HKRK B28 cells)	cytosolic free calcium transients [3]	activation of AC (in words) [4]
103 ± 1 percentage of vehicle-treated	85 ± 9 percentage of vehicle-treated	50-60%	≥ 10	16	inactive		hPTH(3-34) (SEIQLMHNLGKHLNSMERVEWLRKKLQDVHNF-NH2; UniProt P01270 34-65, looked up, fragment) [amino-terminally truncated human PTH analog]	neither hPTH(3-34) nor hPTH(7-34) activated PLC significantly	57 ± 3 percentage of the activity measured in vehicle-treated controls	50 ± 1 percentage of the activity measured in vehicle-treated controls	neither hPTH(3-34) nor hPTH(7-34) (100 nM) induced this response	
122 ± 7 percentage of vehicle-treated	92 ± 10 percentage of vehicle-treated				inactive	inactive	hPTH(7-34) (LMHNLGKHLNSMERVEWLRKKLQDVHNF; Parathyroid hormone; UniProt P01270 38-65, looked up, fragment) [amino-terminally truncated human PTH analog]	neither hPTH(3-34) nor hPTH(7-34) activated PLC significantly	1 ± 1 percentage of the activity measured in vehicle-treated controls	0 ± 2 percentage of the activity measured in vehicle-treated controls	neither hPTH(3-34) nor hPTH(7-34) (100 nM) induced this response	failed to activate AC at all concentrations tested

Substance	formation of IP3 (activation of phospholipase-C) [1, 6]	formation of IP3 (activation of phospholipase-C) [1, 7]	u-PA bioassay activity, % of maximal response to hPTH(1-34) ([2]; HKRK B7 and HKRK B28 cells)	concentrations at which AC was stimulated significantly [4] [nM]	cAMP response as % of the maximal response to hPTH(1-34) ([4]; 1000 nM peptide) [%]	maximal activation of phosphate uptake (in words) [5]	u-PA bioassay activity (in words) ([2]; HKRK B7 and HKRK B28 cells)	activation of PLC (in words) [1]	secreted u-PA ([2]; HKRK B7 cells)	secreted u-PA ([2]; HKRK B28 cells)	cytosolic free calcium transients [3]	activation of AC (in words) [4]
hPTHrp(1-36)	93 ± 6 percentage of vehicle-treated	160 ± 9 percentage of vehicle-treated				comparable maximal activation of phosphate uptake		stimulated PLC equivalently to hPTH(1-34)	88 ± 5 percentage of the activity measured in vehicle-treated controls	97 ± 9 percentage of the activity measured in vehicle-treated controls		indistinguishable from that to hPTH(1-34)
